biological target: His6-Crm1 (S. cerevisiae, UniProt P30822 1-1084); experiment: pull-down; GST fusions immobilised on glutathione-sepharose from E. coli lysate and washed five times in PBS/KMD; His6-Xpo1 (Crm1) 5 μM in 100 μl, 4 °C, 15 min; washed with TBST; SDS-PAGE, GelCode Blue; without Ran-GTP; details: both partners purified

Row | Binder | binding result
1 | SGTAIFGFLGHNKTLSISSLQQSILNMSK (domain or fragment, source: E. coli BL21(DE3)RIL, immobilised from lysate on glutathione-sepharose and washed; not shown: GST, N-terminal, kept) [GST-Ace2(122-150), wild-type] | binds
2 | SGTAIFGFLGHNKTLDISSLQQSILNMSK (domain or fragment, source: E. coli BL21(DE3)RIL, immobilised from lysate on glutathione-sepharose and washed; not shown: GST, N-terminal, kept) [GST-Ace2(122-150) S137D] | binds
3 | DGTAIFGFLGHNKTLSISSLQQSILNMSK (domain or fragment, source: E. coli BL21(DE3)RIL, immobilised from lysate on glutathione-sepharose and washed; not shown: GST, N-terminal, kept) [GST-Ace2(122-150) S122D] | binds
4 | SGTAIVGFLGHNKTLSISSLQQSILNMSK (domain or fragment, source: E. coli BL21(DE3)RIL, immobilised from lysate on glutathione-sepharose and washed; not shown: GST, N-terminal, kept) [GST-Ace2(122-150) F127V] | binds
